Starred links: 1 amine or outer side, 2 acyl side, 3 side chain; linkers in the order of their positions; H or OH if unused. Positions of bridges follow the written chain, without caps; N, C: chain ends. Non-standard residues stand in square brackets, D forms with d. No end group written: not given here. Yde = (2S)-2-amino-3-[4-[2-(dimethylamino)ethoxy]phenyl]propanoic acid, CN(C)CCOc1ccc(C[C@H](N[*:1])C(=O)[*:2])cc1; Trp(7-Me) = Cc1cccc2c(C[C@H](N)C(=O)O)c[nH]c12; Trp(1-Me) = Cn1cc(C[C@H](N)C(=O)O)c2ccccc21; αMeLys(Me2) = CN(C)CCCC[C@](C)(N)C(=O)O; 2Nal = N[C@@H](Cc1ccc2ccccc2c1)C(=O)O; 3Pal = N[C@@H](Cc1cccnc1)C(=O)O; Dad = desamino-aspartamic acid; αMeL = CC(C)C[C@](C)(N)C(=O)O; Thp = NC1(C(=O)O)CCOCC1; Abu = CC[C@H](N)C(=O)O; Aib = CC(C)(N)C(=O)O; Ava = NCCCCC(=O)O; Sar = CNCC(=O)O

For the assay, the target named is T1, IL-23 receptor on the surface of HEK-Blue IL-23 cells (UniProt Q5VWK5 24-629, limits assumed).
T1 sequence (looked up): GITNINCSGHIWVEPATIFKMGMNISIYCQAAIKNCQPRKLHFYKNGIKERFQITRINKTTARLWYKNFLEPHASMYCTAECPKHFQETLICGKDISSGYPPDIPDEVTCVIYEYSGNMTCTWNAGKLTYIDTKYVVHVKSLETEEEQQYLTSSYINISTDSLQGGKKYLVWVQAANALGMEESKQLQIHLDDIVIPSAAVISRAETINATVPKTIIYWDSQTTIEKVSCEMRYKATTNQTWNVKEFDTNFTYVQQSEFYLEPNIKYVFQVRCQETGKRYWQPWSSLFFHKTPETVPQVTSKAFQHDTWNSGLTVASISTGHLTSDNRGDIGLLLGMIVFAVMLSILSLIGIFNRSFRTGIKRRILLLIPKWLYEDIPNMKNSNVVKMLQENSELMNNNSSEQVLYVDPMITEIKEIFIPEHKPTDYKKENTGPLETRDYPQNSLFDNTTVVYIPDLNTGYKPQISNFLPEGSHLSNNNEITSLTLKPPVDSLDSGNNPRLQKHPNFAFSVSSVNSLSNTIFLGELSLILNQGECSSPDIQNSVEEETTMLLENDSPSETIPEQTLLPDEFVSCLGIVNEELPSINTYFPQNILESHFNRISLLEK
Nature of the assay: cell-based or functional assay.

B1: Compound of SEQ ID NO: 8 (peptide)
peptide: [Ava]CNTWQC[Yde][2Nal][Aib]ENN-NH2
modifications: lactam (positions not given here); disulfide 2-7; not fully specified (bridges); printed as Apt(§1)-C(@2)-N-T-W-Q-C(@2)-Yde-Nal-Aib-E(§1)-N—N—NH2
With B1, the “pSTAT3 (nM)” value was determined as 5.54 nM.

B2: Compound of SEQ ID NO: 150 (peptide)
peptide: [Dad]CNT[Trp(7-Me)]LC[Yde][2Nal][αMeLys(Me2)]KN[3Pal]-NH2
modifications: lactam (positions not given here); disulfide 2-7; not fully specified (bridges); printed as Dad(§1)-C(@2)-N-T-Wim-L-C(@2)-Yde-Nal-MKdm-K(§1)-N-Pal-NH2
In the case of B2, the “pSTAT3 (nM)” value came to 0.13 nM.

B3: Compound of SEQ ID NO: 122 (peptide)
peptide: [Dad][Abu]K[Trp(7-Me)]K(Ac)C[Yde][2Nal][Thp]KN[3Pal][Sar]-NH2
modifications: lactam (positions not given here); thioether 2-6; not fully specified (residue 3, bridges); printed as Dad(§1)-Abu(§3)(@2)-K[aAc](@3)-Wim-K[Ac]-C(@2)-Yde-Nal-Thp-K(§1)-N-Pal-Sar-NH2; also: K[aAc]: Abu2 bonded to epsilon-NH2 of acetylated Lys3, acetyl presumably on alpha-amine
As for B3, the “pSTAT3 (nM)” value came to 0.37 nM.

B4: Compound of SEQ ID NO: 105 (peptide)
peptide: [Dad]CK[Trp(7-Me)]K(Ac)C[Yde][2Nal][Thp]KN[3Pal][Sar]-NH2
modifications: lactam (positions not given here); disulfide 2-6; not fully specified (residue 3, bridges); printed as Dad(§1)-C(§3)(@2)-K[aAc](@3)-Wim-K[Ac]-C(@2)-Yde-Nal-Thp-K(§1)-N-Pal-Sar-NH2; also: K[aAc]: Cys2 bonded to epsilon-NH2 of acetylated Lys3, acetyl presumably on alpha-amine
For B4, the “pSTAT3 (nM)” value was 0.1 nM.

B5: Compound of SEQ ID NO: 126 (peptide)
peptide: [Ava]CK[Trp(1-Me)]K(Ac)C[Yde][2Nal][Thp]EN[3Pal][Sar]-NH2
modifications: lactam N-10; disulfide 2-6; not fully specified (residue 3); printed as Apt(§1)-C(§3)(@2)-K[aAc](@3)-Wme-K[Ac]-C(@2)-Yde-Nal-ThpE(§1)-N-Pal-Sar-NH2; also: K[aAc]: Cys2 bonded to epsilon-NH2 of acetylated Lys3, acetyl presumably on alpha-amine
On to B5, for which the “pSTAT3 (nM)” value was determined as 0.11 nM.

B6: Compound of SEQ ID NO: 106 (peptide)
peptide: [Dad]CK[Trp(7-Me)]K(Ac)C[Yde][2Nal][αMeL]KN[3Pal][Sar]-NH2
modifications: lactam (positions not given here); disulfide 2-6; not fully specified (residue 3, bridges); printed as Dad(§1)-C(§3)(@2)-K[aAc](@3)-Wim-K[Ac]-C(@2)-Yde-Nal-Mle-K(§1)-N-Pal-Sar-NH2; also: K[aAc]: Cys2 bonded to epsilon-NH2 of acetylated Lys3, acetyl presumably on alpha-amine
On to B6, for which the “pSTAT3 (nM)” value worked out at 0.13 nM.

B7: Compound of SEQ ID NO: 149 (peptide)
peptide: [Ava]CK[Trp(7-Me)]K(Ac)C[Yde][2Nal][αMeLys(Me2)]EN[3Pal][Sar]-NH2
modifications: lactam N-10; disulfide 2-6; not fully specified (residue 3); printed as Apt(§1)-C(§3)(@2)-K[aAc](@3)-Wim-K[Ac]-C(@2)-Yde-Nal-MKdm-E(§1)-N-Pal-Sar-NH2; also: K3 acetylated (K[aAc]), acetyl site not given here, ε-NH2 takes the Cys2 bond
Consider B7, for which the “pSTAT3 (nM)” value was 0.04 nM.

These data come from patent US20260258084A1, “New Peptides as Selective IL-23 Receptor Antagonists” (Sanofi, priority 2022, published 2026).
